Measurements published in the DeepSol protein solubility set.

assay: soluble on expression in E. coli; label from the status in PepcDB or PDB records

Sequence	soluble on expression in E. coli
MADYDLAIIGGGLNGVSLARDAAGRGLRVILFEQGDLGGAASSATPRLIHGDLSVLERRGFWRVRRALAERRIWLRIAPHLVRPMRFVIPAHSEERPPWLLRAGLYVYDGLTNRGGLPPSATLDITHHPVGNALKRPFGTAFEYSDCVVDDSRLVVLTALDAAERGAAIHTGARCVRADRTDTWRLAVVDRGHRRTITARALANATGGWTSMVADTVLREPQPAMAAMQMSQIIVPRLFDSENVYVFQNNDGRLIFARPLERDFTLIGTVTHAFTGDPAIVAMPGADVSYLCEAASRYFRERVAPTDVVRTVSGVNLTLASARGRDGTALFHARRRKAPLITMFGGDVTTSRLRAERAVTRLTPFYPMSPPWTDGAVLPGGDFAWDRFDTEVDLARDRWRFLSEPEAQRLVAAYGSRLPAVLGEARTRDELGPTFGPELTGAEVRYLMSHEWARFPEDVLWRRSKLGLTMPKADRDGLAAFMADVNDRPEPVEQRPIGRLEHHHHHH	not soluble
MAASFVAVQGNADHGVKLKSGLTSAHRLQRRLSSDLRPLAAADLTGDSLPSEERRRTSSSTPDESLRQVMYLNCWAQG	soluble
MDWFGVDAGTLREGDRADFVVIDPNCLNSDVDAYHEETVPFYGGLSRMVNRNDDAVVATAVNGTVVFGKGEFRDGYGLEHHHHHH	not soluble
MIRPKPIAFEQPQTMPSILYPIHPPFRREELVTPTRENQIFKELLISISIYNSGEERLERITRPPLMASIPNGRFYNCRVRSSGSKTKAIFQQFKISVCSRE	not soluble
MIHLVDYALLKPYLTVDEAVAGARKAEELGVAAYCVNPIYAPVVRPLLRKVKLCVVADFPFGALPTASRIALVSRLAEVADEIDVVAPIGLVKSRRWAEVRRDLISVVGAAGGRVVKVITEEPYLRDEERYTLYDIIAEAGAHFIKSSTGFAEEAYAARQGNPVHSTPERAAAIARYIKEKGYRLGVKMAGGIRTREQAKAIVDAIGWGEDPARVRLGTSTPEALL	soluble
MGSLGFLAGGVMPLEQLKQELSEVKGVFGVNLFRPQTDAPKPSDIDELAGLLSSAFRQFGLDEPTVPTPDLSNGWEAKFEAVLAAKPAVFSCTFGIFSAEEFARIKATGIEAWVTVTNPEDALAAQKAGANALVVQGPEAGGHRSTWSIEVEPDERDLKTLLAAVKQAGVYLPLIAAGGLSTSADVAAILEAGASAASCGSAFLLSDEAGTSSLNREILDAAPALGLESVSSRAFSGRYARGVETRFTRSNEGLPPLYPYLNPMITSLRKVAGSAGNWDYAYCLVGVGLESIAKGSAKQILESLTPSALEHHHHHH	not soluble
SMSTKGTILVTGGAGYIGSHTAVELLAHGYDVVIADNLVNSKREAIARIEKITGKTPAFHETDVSDERALARIFDAHPITAAIHFAALKAVGESVAKPIEYYRNNLDSLLSLLRVMRERAVKRIVFSSSATVYGVPERSPIDETFPLSATNPYGQTKLMAEQILRDVEAADPSWRVATLRYFNPVGAHESGLIGEDPAGIPNNLMPYVAQVAVGKLEKLRVFGSDYPTPDGTGVRDYIHVVDLARGHIAALDALERRDASLTVNLGTGRGYSVLEVVRAFEKASGRAVPYELVARRPGDVAECYANPAAAAETIGWKAERDLERMCADHWRWQENNPRGFV	soluble
QPLPSAALRRCPPPARVGGRWVSAEKVNEGGSGGGGSQRLTRRARSTARVPAPGTMDAPRASAAKPPTGRKMKARAPPPPGKAATLHVHSDQKPPHDGALGSQQNLVRMKEALRASTMDVTVVLPSGLEKRSVLNGSHAMMDLLVELCLQNHLNPSHHALEIRSSETQQPLSFKPNTLIGTLNVHTVFLKEKVPEEKVKPGPPKVPEKSVRLVVNYLRTQKAVVRVSPEVPLQNILPVICAKCEVSPEHVVLLRDNIAGEELELSKSLNELGIKELYAWDNRRETFRKSSLGNDETDKEKKKFLGFFKVNKRSNSKGCLTTPNSPSMHSRSLTLGPSLSLGSISGVSVKSEMKKRRAPPPPGSGPPVQDKASEKVSLGSQIDLQKKKRRAPAPPPPQPPPPSPLIPNRTEDKEENRKSTMVSLPLGSGSHCSPDGAPQVLSEAEETVSVGSCFASEDTTEDSGVMSSPSDIVSLDSQQDSMKYKDKWATDQEDCSDQDLAGTPDLGPQKSPLWEKNGSENSHLRTEKAVTASNDEEDLLIAGEFRKTLAELDEDLEEMEDSYETDTSSLTSSIHGASNHCPQDAMIPHGDTDAIPVTFIGEVSDDPVDSGLFSNRNNNAGSFDSEGVASRRDSLAPLQAEHSQPHEKAREEVPALHPASHDVGKGIRVALSNISKDGNLMETAPRVTSFASNLHTDNLNAKVKDKVYGCADGERTQATERVNSQPVNEKDSNDKNAALAPTSWHQRGQNPGKSYRLKHGLTTYKIIPPKSEMRCYDRDVSLSTGAIKIDELGNLVSPHATGIRIISLSSSVPEAESQPIGKVREFWRCNSVEKHLGRPSESSARGPPSTPVPTQTQNPESRLQADPKPISPQQKSAHHEGRNPLGEGRNQPPTMGMGHVRVPAAHTTEVTFLKPQRRTSSQYVASAIAKRIGAPKVHADVVRPHGYAEKGYAGKAPVLAAPPVTVKDDRTSSPHSETQGWKDGAQWPCVTPPNNHGEDLAVGAPPRGEVIGPHRKLSTQDRPAAIHRSSCFSLVQSSQRDRVSVGQSCGFSGKQSTSSQEASSASEPRRAPDGTDPPPPHTSDTQACSRELVNGSVRAPGHGEPSHPPGGSGTESHILLEREEKPSVFSTDGNETDSIWPPSIFGPKKKFKPVVQRPVPKDTSLHSALMEAIHSAGGKDRLRKTAEHTGEGRPAKLSYTEAEGERSALLAAIRGHSGTCSLRKVASSASEELQSFRDAALSAQGSESPLLEDLGLLSPPAIPPPPPPPSQALSAPRTASRFSTGTLSNTADARQALMDAIRSGTGAARLRKVPLLV	soluble
MKKGTVLNSEISSVISRLGHTDTLVVCDAGLPIPNSTARIDMALTQGVPSFMQVVDVVTREMQVEAAILATEIKQQNPQLHETLLTHLEQLQQHQGNTIKISYTTHEQFKKLTADSQAVIRSGECSPYANVILCAGVTF	not soluble
PREVLTGGHSVSAPQENRIYVMDSVFMHLTESRVHVYDYTNGKFLGMVPTAFNGHVQVSNDGKKIYTMTTYHERITRGKRSDVVEVWDADKLTFEKEISLPPKRVQGLNYDGLFRQTTDGKFIVLQNASPATSIGIVDVAKGDYVEDVTAAAGCWSVIPQPNRPRSFMTICGDGGLLTINLGEDGKVASQSRSKQMFSVKDDPIFIAPALDKDKAHFVSYYGNVYSADFSGDEVKVDGPWSLLNDEDKAKNWVPGGYNLVGLHRASGRMYVFMHPDGKEGTHKFPAAEIWVMDTKTKQRVARIPGRDALSMTIDQQRNLMLTLDGGNVNVYDISQPEPKLLRTIEGAAEASLQVQFHPVGGT	soluble
MGIFRIQAYFFALIIALFFVACDSGENFKALNSDKTYNFAYNGFEKSLKLNDKAQNFALVFFTKDCGVCKEQIPILQNLAKNYDFNIFVVLGDANDANDAKAWADEKGLSNLAMFYEKRAAKYLSSAIGEIYGVPVLSFFKEGKMDEKFIGLTPYSILEKEIKKVKS	not soluble
MGSDKIHHHHHHMSNTVRAISPDITLFNKTLTFQEISQNTREAVIYIHGGAWNDPENTPNDFNQLANTIKSMDTESTVCQYSIEYRLSPEITNPRNLYDAVSNITRLVKEKGLTNINMVGHSVGATFIWQILAALKDPQEKMSEAQLQMLGLLQIVKRVFLLDGIYSLKELLVEYPEYDCFTRLAFPDGIQMYEEEPSRVMPYVKKALSRFSIDMHLVHSYSDELLTLRQTNCLISCLQDYQLSFKLYLDDLGLHNDVYKNGKVAKYIFDNIC	not soluble
MPPKGGGAGSKKQQGGKKCKDDEADFDAQLAKALQEVQVSKDKQGGDANKKAQKGKQRTSKQESNGEANDNNDASDPKVVSTADHPDNPYPQVAEGMKRQTWPEPTIPVSQQFARGNFPVGIICEHPGEVNAYRYSSEEKRAMEHATEEQVQDLRCAAEVHRQVRRYAQSFIKPGISLLSMTDRIEKKLEELIEKDGLNRGQAFPTGCSLNHVAAHYTPNTGDKCVLMYDDVMKVDFGTQINGRIIDCAWTVAFKDEYEPLLTAVKEATYEGVKQAGIDVRLCDVGAAIQEVMESYEVELNGKVYPVKSIRNLSGHTIAPYVIHGGKSVPIVRGGEATRMEEGELFAIETFGSTGRGFVQEDMECSHYMMVPGGEKTQVRSDKAQQLLRHIHKTYNTLAFARKWLDRDGHDRHLLNLNQLVEAGAVNKYPPLCDIRGCYTAQLEHTLILKPTAKEILSKGDDY	soluble
KKITRPIEKLSDTVSQMAKGQYDTRAKIKTDGEVGDLVNSFNIMADRLEKNIEELEDTARRQEDFTAAFAHELKTPLTSIIGYSDMMRSMDLEKEEISEYSNYIFLQGKRLEKLSFTLMDLISLDKQKIEFNRISTEKMFNDIEKTVEQMLREHNIRFKMSVEPAVIVGNEDLLKSLFMNIIDNGRKAISGQGIIALKAIKTEKGYTVFIQDNGCGMEKSEIKKITEAFYMIDKSRARKEGGAGIGMSLCKKIVSIHNAKWSVRSKPGKGTIISIVFQEGQN	not soluble
RGRGAAAWRILRCRRLPEPSPFLTQPNLAQSQPPAPVPVTDPSVTMHPAVFLSLPDLRCSLLLLVTWVFTPVTTEITSLDTENIDEILNNADVALVNFYADWCRFSQMLHPIFEEASDVIKEEFPNENQVVFARVDCDQHSDIAQRYRISKYPTLKLFRNGMMMKREYRGQRSVKALADYIRQQKSDPIQEIRDLAEITTLDRSKRNIIGYFEQKDSDNYRVFERVANILHDDCAFLSAFGDVSKPERYSGDNIIYKPPGHSAPDMVYLGAMTNFDVTYNWIQDKCVPLVREITFENGEELTEEGLPFLILFHMKEDTESLEIFQNEVARQLISEKGTINFLHADCDKFRHPLLHIQKTPADCPVIAIDSFRHMYVFGDFKDVLIPGKLKQFVFDLHSGKLHREFHHGPDPTDTAPGEQAQDVASSPPESSFQKLAPSEYRYTLLRDRDEL	soluble
MSLFLMDQYIKVDITVEENEQERIMAELLAIGFDSFAEHANMLEAYVEKSAFSEADLKEVLHEVNPAYTYTFAEMPNINWNEEWEKNFDPLVIANQCYVRASFHAERPEFQYEVVINPKMSFGTGHHAEGHHHHHH	soluble
DDIDYANAEYYLGNTYDLVILDTVDNFQPINIGRLVDLARGGGLIIIYTNNLIKDKTFRTSIMRNGLILDEYEKRFKRKLYEHEGIFIIDVNEYIPKPFSGNTM	not soluble
MTDSELMQLSEQVGQALKARGATVTTAESCTGGWVAKVITDIAGSSAWFERGFVTYSNEAKAQMIGVREETLAQHGAVSEPVVVEMAIGALKAARADYAVSISGIAGPDGGSEEKPVGTVWFAFATARGEGITRRECFSGDRDAVRRQATAYALQTLWQQFLQNT	not soluble
MGSDKIHHHHHHMIHIKRAPDTETAYLVMKEGFSDYMIPLGLSPEVFQERILERDGNQLEHSFIAYHGERPVAIWLNGLKTIKKKTVMRCGGLAVDPQYRRLGIAKALYDAQLSYAKSLNVDCLMLEVIQGNEPAITLYKSFGYQTVSELGYFHKEESGQVEPLVEIDQVAFERRYIQQDEYIWQQDPGVMKLAKARYYELDGAFIAAVNESIFAILTDEEEVARVATEATRRLAGELYHLQSTNQQVWEELLKAGWQQRDLKQFIMQKPISV	not soluble
MKRYTPDFPEMMRLCEMNFSQLRRLLPRNDAPGETVSYQVANAQYRLTIVESTRYTTLVTIEQTAPAISYWSLPSMTVRLYHDAMVAEVCSSQQIFRFKARYDYPNKKLHQRDEKHQINQFLADWLRYCLAHGAMAIPVYLEHHHHHH	soluble
